Data taken from paper PMC5078793.

Molecular target: LTBP-1 C-terminal region (UniProt Q14766)
Experiment: SPR; Biacore; LTBP-1 C-terminal region immobilised by amine coupling on CM5 (methods); 10 mM HEPES pH 7.4, 0.1 M NaCl, 0.5 mM CaCl2, 0.005% P20

Sequence of LTBP-1 C-terminal region (Q14766 24-1721): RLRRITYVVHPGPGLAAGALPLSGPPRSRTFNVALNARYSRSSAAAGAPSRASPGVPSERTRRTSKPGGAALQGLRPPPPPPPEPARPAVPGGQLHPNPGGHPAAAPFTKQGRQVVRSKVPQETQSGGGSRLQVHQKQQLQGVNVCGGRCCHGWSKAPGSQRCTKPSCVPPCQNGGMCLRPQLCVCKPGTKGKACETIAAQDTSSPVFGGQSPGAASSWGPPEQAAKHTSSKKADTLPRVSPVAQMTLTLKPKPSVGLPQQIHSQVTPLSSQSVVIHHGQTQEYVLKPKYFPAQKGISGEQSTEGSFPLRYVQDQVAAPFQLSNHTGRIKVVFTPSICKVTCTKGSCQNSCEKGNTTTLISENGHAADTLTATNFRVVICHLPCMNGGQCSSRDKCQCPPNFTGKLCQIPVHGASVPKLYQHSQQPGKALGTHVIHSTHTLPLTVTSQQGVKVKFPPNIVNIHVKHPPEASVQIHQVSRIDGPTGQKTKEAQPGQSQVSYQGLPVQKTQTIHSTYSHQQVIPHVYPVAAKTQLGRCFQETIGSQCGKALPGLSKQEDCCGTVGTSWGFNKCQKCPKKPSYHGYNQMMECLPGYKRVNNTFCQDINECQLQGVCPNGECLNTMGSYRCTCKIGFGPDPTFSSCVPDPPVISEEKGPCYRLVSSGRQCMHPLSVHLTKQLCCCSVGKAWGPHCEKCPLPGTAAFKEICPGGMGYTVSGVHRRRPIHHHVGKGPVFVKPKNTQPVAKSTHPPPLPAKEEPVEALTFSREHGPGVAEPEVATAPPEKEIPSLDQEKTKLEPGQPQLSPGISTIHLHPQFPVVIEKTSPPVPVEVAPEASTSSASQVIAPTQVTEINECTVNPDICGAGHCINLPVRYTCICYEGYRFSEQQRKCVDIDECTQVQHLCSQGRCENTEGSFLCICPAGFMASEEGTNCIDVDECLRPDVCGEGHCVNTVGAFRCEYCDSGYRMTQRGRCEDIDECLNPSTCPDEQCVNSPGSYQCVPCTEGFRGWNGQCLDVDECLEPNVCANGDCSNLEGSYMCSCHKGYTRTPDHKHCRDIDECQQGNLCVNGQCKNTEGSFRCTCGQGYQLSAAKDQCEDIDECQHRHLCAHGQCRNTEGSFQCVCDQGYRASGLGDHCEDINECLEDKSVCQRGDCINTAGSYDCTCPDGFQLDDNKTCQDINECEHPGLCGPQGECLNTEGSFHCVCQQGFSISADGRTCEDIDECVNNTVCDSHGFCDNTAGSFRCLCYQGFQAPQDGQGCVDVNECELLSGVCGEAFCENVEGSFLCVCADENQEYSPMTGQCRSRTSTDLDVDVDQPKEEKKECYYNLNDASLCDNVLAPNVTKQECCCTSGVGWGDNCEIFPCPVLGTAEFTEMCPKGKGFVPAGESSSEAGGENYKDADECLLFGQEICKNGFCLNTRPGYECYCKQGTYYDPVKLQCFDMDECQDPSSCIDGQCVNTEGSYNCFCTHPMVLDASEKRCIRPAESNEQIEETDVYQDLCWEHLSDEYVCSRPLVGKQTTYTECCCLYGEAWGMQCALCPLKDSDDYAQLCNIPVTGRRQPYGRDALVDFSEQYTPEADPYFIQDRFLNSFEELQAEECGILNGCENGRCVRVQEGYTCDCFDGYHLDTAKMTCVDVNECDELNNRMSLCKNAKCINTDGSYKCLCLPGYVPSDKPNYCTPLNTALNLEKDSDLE

- Kd: 59 nM
B1: ADAMTS6 C-terminal region (domain or fragment)
chain: DGGWGPWSLWGECSRTCGGGVSSSLRHCDSPAPSGGGKYCLGERKRYRSCNTDPCPLGSRDFREKQCADFDNMPFRGKYYNWKPYTGGGVKPCALNCLAEGYNFYTERAPAVIDGTQCNADSLDICINGECKHVGCDNILGSDAREDRCRVCGGDGSTCDAIEGFFNDSLPRGGYMEVVQIPRGSVHIEVREVAMSKNYIALKSEGDDYYINGAWTIDWPRKFDVAGTAFHYKRPTDEPESLEALGPTSENLIVMVLLQEQNLGIRYKFNVPITRTGSGDNEVGFTWNHQPWSECSATCAGGVQRQEVVCKRLDDNSIVQNNYCDPDSKPPENQRACNTEPCPPEWFIGDWLECSKTCDGGMRTRAVLCIRKIGPSEEETLDYSGCLTHRPVEKEPCNNQSCPPQWVALDWSECTPKCGPGFKHRIVLCKSSDLSKTFPAAQCPEESKPPVRIRCSLGRCPPPRWVTGDWGQCSAQCGLGQQMRTVQCLSYTGQASSDCLETVRPPSMQQCESKCDSTPISNTEECKDVNKVAYCPLVLKFKFCSRAYFRQMCCKTCQGH
